From patent US20250171536A1

Columns and labels:
[1] = target: Human CD117 (c-kit), cell-surface expressed (human) (UniProt P10721); experiment: cell-based or functional assay
[2] = target: Cyno CD117, soluble (cynoCD117 1-520) (cynomolgus monkey); experiment: SPR Biacore 4000, captured antibody, soluble CD117 analyte, 1:1 fit
[3] = target: Full length human CD117, soluble (HuCD117 1-524) (human) (UniProt P10721); experiment: as above
[4] = target: N-terminal domain of human CD117, soluble (HuCD117 1-308) (human) (UniProt P10721); experiment: as above
Chain of N-terminal domain of human CD117, soluble (HuCD117 1-308) (human) (P10721 26-308): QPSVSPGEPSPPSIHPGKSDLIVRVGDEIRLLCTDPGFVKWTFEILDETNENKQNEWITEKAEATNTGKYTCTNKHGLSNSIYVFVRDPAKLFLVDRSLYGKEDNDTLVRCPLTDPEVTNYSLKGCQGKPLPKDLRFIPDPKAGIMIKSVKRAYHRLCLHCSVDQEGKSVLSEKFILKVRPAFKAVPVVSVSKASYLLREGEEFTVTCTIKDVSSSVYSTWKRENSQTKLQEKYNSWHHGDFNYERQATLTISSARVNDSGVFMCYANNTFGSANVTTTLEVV

Chain of Cyno CD117, soluble (cynoCD117 1-520) (cynomolgus monkey) (P10721 other isoform, or with tags, fused parts or gaps): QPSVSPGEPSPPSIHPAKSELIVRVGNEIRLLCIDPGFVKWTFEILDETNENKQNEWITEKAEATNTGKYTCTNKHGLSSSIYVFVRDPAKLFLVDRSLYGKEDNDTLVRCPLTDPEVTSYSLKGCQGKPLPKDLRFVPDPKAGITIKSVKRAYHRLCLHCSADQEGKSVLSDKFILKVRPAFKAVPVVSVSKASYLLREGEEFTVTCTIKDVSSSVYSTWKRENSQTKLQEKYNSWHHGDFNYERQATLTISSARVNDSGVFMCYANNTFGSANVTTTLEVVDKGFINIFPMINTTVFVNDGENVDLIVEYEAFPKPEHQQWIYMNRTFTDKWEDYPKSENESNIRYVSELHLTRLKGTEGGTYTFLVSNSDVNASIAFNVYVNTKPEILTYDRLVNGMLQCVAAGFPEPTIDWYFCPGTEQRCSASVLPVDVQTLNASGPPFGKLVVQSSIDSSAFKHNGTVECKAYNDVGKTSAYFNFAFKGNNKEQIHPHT
Chain of Human CD117 (c-kit), cell-surface expressed (human) (P10721 26-976 limits assumed): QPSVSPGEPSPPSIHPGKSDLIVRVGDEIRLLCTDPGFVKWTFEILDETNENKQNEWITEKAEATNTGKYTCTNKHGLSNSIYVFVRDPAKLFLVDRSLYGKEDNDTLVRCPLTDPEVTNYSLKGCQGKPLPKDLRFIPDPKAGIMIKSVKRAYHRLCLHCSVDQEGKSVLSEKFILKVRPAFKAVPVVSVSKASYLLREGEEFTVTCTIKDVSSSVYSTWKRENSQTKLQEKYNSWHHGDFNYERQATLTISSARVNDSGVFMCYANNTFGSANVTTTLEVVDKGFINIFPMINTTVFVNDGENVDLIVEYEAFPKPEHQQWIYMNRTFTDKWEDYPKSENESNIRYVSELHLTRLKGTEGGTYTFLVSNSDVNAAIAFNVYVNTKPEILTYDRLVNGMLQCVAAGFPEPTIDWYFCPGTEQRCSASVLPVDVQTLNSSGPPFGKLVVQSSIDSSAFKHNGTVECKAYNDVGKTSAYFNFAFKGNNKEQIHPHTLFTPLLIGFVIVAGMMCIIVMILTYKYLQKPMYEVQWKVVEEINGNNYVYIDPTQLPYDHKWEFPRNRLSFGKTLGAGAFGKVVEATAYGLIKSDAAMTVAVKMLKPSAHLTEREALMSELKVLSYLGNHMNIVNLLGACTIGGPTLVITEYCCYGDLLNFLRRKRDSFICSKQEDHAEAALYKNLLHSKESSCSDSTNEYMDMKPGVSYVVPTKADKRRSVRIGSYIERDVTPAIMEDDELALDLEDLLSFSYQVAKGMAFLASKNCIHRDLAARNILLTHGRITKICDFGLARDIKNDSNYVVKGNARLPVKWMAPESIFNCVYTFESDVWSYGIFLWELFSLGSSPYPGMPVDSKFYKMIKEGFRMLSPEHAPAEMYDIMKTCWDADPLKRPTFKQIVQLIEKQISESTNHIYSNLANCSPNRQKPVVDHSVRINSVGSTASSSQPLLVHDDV
Chain of Full length human CD117, soluble (HuCD117 1-524) (human) (P10721 26-524): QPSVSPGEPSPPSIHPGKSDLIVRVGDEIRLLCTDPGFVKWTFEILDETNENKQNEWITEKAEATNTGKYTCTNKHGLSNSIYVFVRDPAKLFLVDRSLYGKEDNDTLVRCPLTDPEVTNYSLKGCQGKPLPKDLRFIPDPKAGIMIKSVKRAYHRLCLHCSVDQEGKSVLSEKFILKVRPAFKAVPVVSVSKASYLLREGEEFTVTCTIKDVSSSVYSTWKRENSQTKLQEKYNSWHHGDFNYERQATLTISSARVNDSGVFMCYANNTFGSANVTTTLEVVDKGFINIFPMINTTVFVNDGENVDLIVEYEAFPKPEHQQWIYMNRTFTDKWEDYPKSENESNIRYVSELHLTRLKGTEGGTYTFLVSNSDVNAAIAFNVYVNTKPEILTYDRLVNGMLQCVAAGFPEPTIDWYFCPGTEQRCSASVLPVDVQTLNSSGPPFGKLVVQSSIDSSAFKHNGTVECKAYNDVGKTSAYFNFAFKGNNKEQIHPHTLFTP

| EC50 of trogocytosis (ADCT; DILC18 membrane uptake by neutrophils from CD117-transfected 293 cells) [1] [nM] | Normalised uptake (B max) in %, ADCT [1] [%] | Kd [2] [nM] | Kd [3] [nM] | Kd [4] [nM] | Binder |
| --- | --- | --- | --- | --- | --- |
| 0.48 | 70.6 | 0.1 | 0.3 | 0.08 | huAb249 IgA2 (antibody, from another filing, V domains shown) VH: EVQLVQSGAEVKKPGESLKISCKGSGYRFTTSWIGWVRQMPGKGLEWMGIIYPGDSDTRYSPSFQGQVTISADKSISTAYLQWSSLKASDTAMYYCARHGLGYNGYEGAFDIWGQGTLVTVSS VL: DIQMTQSPSSLSASVGDRVTITCRASQGIGSALAWYQQKPGKAPKLLIYDASNLETGVPSRFSGSGSGTDFTLTISSLQPEDFATYYCQQLNGYPLTFGQGTRLEIK |
| – | – | 0.3 | 0.3 | 0.14 | huAb249 IgG4 (antibody, from another filing, V domains shown) VH: EVQLVQSGAEVKKPGESLKISCKGSGYRFTTSWIGWVRQMPGKGLEWMGIIYPGDSDTRYSPSFQGQVTISADKSISTAYLQWSSLKASDTAMYYCARHGLGYNGYEGAFDIWGQGTLVTVSS VL: DIQMTQSPSSLSASVGDRVTITCRASQGIGSALAWYQQKPGKAPKLLIYDASNLETGVPSRFSGSGSGTDFTLTISSLQPEDFATYYCQQLNGYPLTFGQGTRLEIK |
